Measurements from patent US5418135.

Target: PDGF receptor (cell membrane-bound receptor for native PDGF)

| HALF-MAX INHIBITION (3H-thymidine incorporation induced by PDGF dimer) [nM] | Substance |
| --- | --- |
| 100 | A4, Endo Lys-C fragment aa 80-110 of alkylated PDGF A monomer (peptide) |
| > 200 | A6, Endo Lys-C fragment aa 12-41 of alkylated PDGF A monomer (peptide) |
| 100 | PDGF A chain monomer, intact, Cys residues pyridylethylated (ligand) |
